From patent publication US20200247897A1, “THERAPEUTIC ANTIBODIES BASED ON MUTATED IGG HEXAMERS” (GENMAB B.V., priority 2017, published 2020)

Key:
LS-411N = experiment: Drug combination screen (ATPlite, Synergy Score), LS-411N; format: cell-based, human; conditions: compound in combination with IgG1-hDR5-01-G56T-E430G + IgG1-hDR5-05-E430G; LS-411N; 72 hour ATPlite, 6x6 matrix
SW480 = experiment: Drug combination screen (ATPlite, Synergy Score), SW480; format: cell-based, human; conditions: compound in combination with IgG1-hDR5-01-G56T-E430G + IgG1-hDR5-05-E430G; SW480; 72 hour ATPlite, 6x6 matrix
DLD-1 = experiment: Drug combination screen (ATPlite, Synergy Score), DLD-1; conditions: compound in combination with IgG1-hDR5-01-G56T-E430G + IgG1-hDR5-05-E430G; DLD-1; 120 hour ATPlite, 6x6 matrix
HCT 116 = experiment: Drug combination screen (ATPlite, Synergy Score), HCT 116; conditions: compound in combination with IgG1-hDR5-01-G56T-E430G + IgG1-hDR5-05-E430G; HCT 116; 120 hour ATPlite, 6x6 matrix
SNU-C2B = experiment: Drug combination screen (ATPlite, Synergy Score), SNU-C2B; conditions: compound in combination with IgG1-hDR5-01-G56T-E430G + IgG1-hDR5-05-E430G; SNU-C2B; 72 hour ATPlite, 6x6 matrix

B1: TNF-related apoptosis-inducing ligand (protein, UniProt P50591 1-281, looked up)
Tumor necrosis factor ligand …: MAMMEVQGGPSLGQTCVLIVIFTVLLQSLCVAVTYVYFTNELKQMQDKYSKSGIACFLKEDDSYWDPNDEESMNSPCWQVKWQLRQLVRKMILRTSEETISTVQEKQQNISPLVRERGPQRVAAHITGTRGRSNTLSSPNSKNEKALGRKINSWESSRSGHSFLSNLHLRNGELVIHEKGFYYIYSQTYFRFQEEIKENTKNDKQMVQYIYKYTSYPDPILLMKSARNSCWSKDAEYGLYSIYQGGIFELKENDRIFVSVTNEHLIDMDHEASFFGAFLVG
Synergy Score LS-411N (LS-411N): 0.1
Synergy Score SW480 (SW480): 0.9
Synergy Score DLD-1 (DLD-1): 0
Synergy Score HCT-116 (HCT 116): 0
Synergy Score SNU-C2B (SNU-C2B): 0.2
